Biological target: VanX^C78/157S
Test: SEC

## VanX^C78/157S (enzyme)
  stoichiometry N: 2

From article doi:10.1101/2023.10.13.562161
